Data as given in patent publication US20040147437A1, “Calycins” (priority 2000, published 2004).

Assays:
[1] = Ligand binding affinity of proteins for selected ligands (FIG. 5): retinoic acid; conditions: mutant relative to native ERABP; see FIG. 5
[2] = Ligand binding affinity of proteins for selected ligands (FIG. 5): retinol; conditions: see FIG. 5
[3] = Ligand binding affinity of proteins for selected ligands (FIG. 5): retinal; conditions: see FIG. 5

affinity for retinoic acid [1]: reduced affinity
binding of retinol [2]: bind
binding of retinal [3]: bind
B1: ERABP (Arg 80 and Glu63 to isoleucine): Epididymal Retinoic acid Binding Protein with Arg 80 and Glu63 mutated to isoleucine (protein, UniProt P06911 1-188, looked up, variant E63I R80I)
chain: MENIMPFALLGLCVGLAAGTEGAVVKDFDISKFLGFWYEIAFASKMGTPGLAHKEEKMGAMVVELKENLLALTTTYYSEDHCVLIKVTATEGDGPAKFQVTILSGKKEVVVEATDYLTYAIIDITSLVAGAVHRTMKLYSRSLDDNGEALYNFRKITSDHGFSETDLYILKHDLTCVKVLQSAAESRP
